Assay: soluble on expression in E. coli; label from the status in PepcDB or PDB records

Sequence	soluble on expression in E. coli
MSLLFDQGHAYQPLAEVLRPQTLTDYIGQQHILGPGKPLRQTLENRNLHSMIFWGPPGVGKTTLANVISNTVEARFEVLSAVQAGVKDIKLVAEKAKQAQAYGEVTVLFVDEVHRFNKAQQDAFLPYVENGTFIFIGATTENPSFELNSALLSRARVYVLKSFTDDDFRQLWQRARSLDERIAKLAIENDALDGLIQFADGDARRFLNFLEIAIDFFTSEAVITLDDIRELLSHQPRRFDKGGENFYDQISAFHKSVRGSSPDGALYWLCRMLDGGIDPLYLARRMVRIASEDIGNADPRALTLALNAWDSQERLGSPEGELSLAQAAVYLASAPKSNAVYTAFNAMMSAVRSSHSAEVPLHLRNAPTSLMKDLDYGRDYRYAHDEPHAYAAGEVYLPDHMQGQRFYDPVDRGLEQKIRQKLDFLKQLDEQAQNQEDEGHHHHHH	soluble
MSLKNQLGQLALEQAKTFGGKLEVQPKVDIKTKHDLSIAYTPGVASVSSAIAKDKTLAYDLTTKKNTVAVISDGTAVLGLGDIGPEAAMPVMEGKAALFKAFAGVDAIPIVLDTKDTEEIISIVKALAPTFGGINLEDISAPRCFEIEQRLIKECHIPVFHDDQHGTAIVVLAAIFNSLKLLKKSLDEVSIVVNGGGSAGLSITRKLLAAGATKVTVVDKFGIINEQEAAQLAPHHLDIAKVTNREFKSGTLEDALEGADIFIGVSAPGVLKAEWISKMAARPVIFAMANPIPEIYPDEALEAGAYIVGTGRSDFPNQINNVLAFPGIFRGALDARAKTITVEMQIAAAKGIASLVPDDALSTTNIIPDAFKEGVAEIVAKSVRSVVLKSEGHHHHHH	soluble
MGSDKIHHHHHHMENYQLRIAHLYGDLMNTYGDYGNVIAIKYYAKQIQVETDYHLISLGDSFKADDYDFVIFGGGQDYEESVTAKDLPSKSDEIKKYIENNDSLLAVCGGFQLLGTTMEFANGKIINGIGAMSHHTVNLNSSELFDNMRGKRLIGNIQIKNNESGETYHGFENHQGRTFLGKGEKALGTVVSGNGNNGDDKTEGVIYKQVYGTYFHGPILTRNGNLAKRILKNALLKRYPDIDWQAKLDGIPTESF	not soluble
METQDHTLYVLLGPTGVGKTDLSLDIAERLGSPIISADSRQIFRELPIGTAAPTPEQRAKVPHLFVGTHSVRDYYSAGMYEVEVLEALKELFRKYRGVLLTGGSMMYIDAVCRGIDDIPDPFPEVREELYARYAAEGLDGILAQLRLLDPDYYAKVDRRNYKRVIHGLEICLSTGRPFSSFHRHEAKERPFRIVKIGLYREREELCKRIDARVLEMMEQGLEEEARAVYPLRHLNALNTVGYKEMFEYFDGSIDRAEAVRRIQRNSRVYARKQMTWFRRDSTIRWFHPEADKGTVLTLVT	not soluble
GPGSMSSADLFKKFTLQNVAQIANSSHKEQMQVRHDLAEQYPQLADFWEDIMPRKSDIMLVRCHDQVHCVTLVSAQPEVLFFNHHNGPYIPHLKLLHKYPFILQRHQVDVGACKHVLSGANIMCPGLTSKGGYITPEIPAGQLVAVYVETKEHAVAIGKTLMSSEEIKKVNSGPCIENIHHVGDGLWMNRVLSASHIGAR	soluble
ASLDSEVELLPHTSFAESLGPWSLYGTSEPVFADGRMCVDLPGGQGNPWDAGLVYNGVPVGEGESYVLSFTASATPDMPVRVLVGEGGGAYRTAFEQGSAPLTGEPATREYAFTSNLTFPPDGDAPGQVAFHLGKAGAYEFCISQVSLTTSAT	soluble
MISASLQQRKTRTRRSMLFVPGANAAMVSNSFIYPADALMFDLEDSVALREKDTARRMVYHALQHPLYRDIETIVRVNALDSEWGVNDLEAVVRGGADVVRLPKTDTAQDVLDIEKEILRIEKACGREPGSTGLLAAIESPLGITRAVEIAHASERLIGIALGAEDYVRNLRTERSPEGTELLFARCSILQAARSAGIQAFDTVYSDANNEAGFLQEAAHIKQLGFDGKSLINPRQIDLLHNLYAPTQKEVDHARRVVEAAEAAAREGLGVVSLNGKMVDGPVIDRARLVLSRAELSGIREE	soluble
VALTVYYPPRVVSLEEPELRLEHCIEFVVRGNPPPTLHWLHNGQPLRESKIIHVEYYQEGEISEGCLLFNKPTHYNNGNYTLIAKNPLGTANQTINGHFLKEPFPVDEVSPTPPITVT	soluble
MNKDTVLNVTVMGREFRIHCPGEEREELLLAVSCLNRKMQEIKSAGKIAGTEQIAIAAAISMTHELLSIRSQRGFDMNEFKRRIELLECRVSDALTDQGIYKNS	not soluble
MSLAEKLPFRVKKHQSKLLKKLGETDMQLQYNKVDNLKIVVSKINGMIIHPGETFSFCKTVGLPTRKKGYKEGMELSFGKPRAGVGGGICQSTNLLHWLALHSPLTITERHHHSIDPFPDNGRVLPWASGAAVFYNYIDFQLTNDTSWAFQINLWLTDKLLEGEIRVNEELDFAYHVKERNHRFIKKEGAYFRTNEIWRHKIAKFRSGALLEEELMYKNYGKVMYVPKTYQEGHHHHHH	soluble
FLETLAKVKKIFIDKTGTLTQKEVLLKEKIIYEEFDGRLLKSLLKVREHLAHSAILKSLDGDEVSLEKIEFFAHGLKASYQNETLLVGSLKFLGSMGVDIPMKESANIMVGFAKNETLCALFILEERLKANAKEVVQALQNKGLELEILSGDNESSVKECAKKLGISNYHAHLTPEDKAQTISSYKGVCAMVGDGNNDALALKQASVSLGFEKSALSKSACDILLLEEDLSLLKKAFDNAQKVYQVVLQ	not soluble
MAHHHHHHMRCFRASCCAPSPWQRACSTVASVSDTADLVIVRESPLDNVVLLEMNNGRANVLTPEFISAFLNKLSDLCDPDKSKCSGIILTSKSPGVFSAGLDLNELNTNLSQDRFAQYWSQFQKLFTTLHALPVPLVGAINGHAAAAGCIVALACDYRVMARRHPTKPTHLTIGIAAAKHGFVVPSYVAASMEHVVGFRKAEELLCMGLLLSAGEALKVGLVDEVVEHHDETVVPCLQFMEKLLELPSPAPYWMIKDLSRRHILAPLCTPALRTQDMVSFYNLFSNLQVKKMLAEHAQKFAKK	not soluble
MEVSSVFIFPPKPKDVLTITLTPKVTCVVVDISKDDPEVQFSWFVDDVEVHTAQTQPREEQFNSTFRSVSELPIMHQDWLNGKEFKCRVNSAAFPAPIEKTISKTKGRPKAPQVYTIPPPKEQMAKDKVSLTCMITDFFPEDITVEWQWNGQPAENYKNTQPIMDTDGSYFVYSKLNVQKSNWEAGNTFTCSVLHEGLHNHHTEKSLSHSPGKE	soluble
MPTISRSALVMYSVDQMYQLINDIPAYPKFLPDCNDSKVIDQDEQSVTAALLVSKGGLSKWFTTKNTLISNEKIHLSLVDGPFKKLEGYWLLTPLSDEACKVSLELEYEFSNKLVSLAFGKVFGHFSNSLVQVFTQRAKEIYGVNVLEHHHHHH	soluble
MGVILLLLIIVFSFSKEAYYCIQVLSSRDLSSAERAYRKLADYPHARIEKIGDYYTVRVGLWENKSKAKEYLSQVKSVYPGAFLRTCYYIEDRIVSINKGNVKKKVESFNGKELVLHGKNEKELICKAVKKVFEDIVSFEGKLTKREITFKSYFPYSVADAVNYALILNKKEGFIPVRCRVYKRDKITYVLELEGFKNGKVKGIKAVDYASVTYRNKVLRLKLIF	not soluble
MGSDKIHHHHHHMIIEHARDMLKRERLFFDKMQAHIGEVNGTISIGCSSLIGQTLLPEVLSLYNAQFPNVEIQVQVGSTEQIKANHRDYHVMITRGNKVMNLANTHLFNDDHYFIFPKNRRDDVTKLPFIEFQADPIYINQIKQWYNDNLEQDYHATITVDQVATCKEMLISGVGVTILPEIMMKNISKEQFEFEKVEIDNEPLIRSTFMSYDPSMLQLPQVDSFVNLMASFVEQPKA	not soluble
MAPALVQRRKKVAMIGSGMIGGTMGYLCALRELADVVLYDVVKGMPEGKALDLSHVTSVVDTNVSVRAEYSYEAALTGADCVIVTAGLTKVPGKPDSEWSRNDLLPFNSKIIREIGQNIKKYCPKTFIIVVTNPLDCMVKVMCEASGVPTNMICGMACMLDSGRFRRYVADALSVSPRDVQATVIGTHGDCMVPLVRYITVNGYPIQKFIKDGVVTEKQLEEIAEHTKVSGGEIVRFLGQGSAYYAPAASAVAMATSFLNDEKRVIPCSVYCNGEYGLKDMFIGLPAVIGGAGIERVIELELNEEEKKQFQKSVDDVMALNKAVAALQAPG	soluble
MVAAGDINVRVTSMDSELEFAIQSSTTGKQLFDQVVKTIGLREIWYFGLQYTDNKGFPTWLKLNKKVLSQDVKKDPTLVFKFRAKFYPEDVAEEIIQDVTMRLFYLQVKDGILSDEIYCPPETSVLLASYAMQAKYGDYVPETHVAGCLTADRLLPQRVLGQFKLNSEEWERRIMTWWADHRATTREQAMLEYLKIAQDLEMYGVNYFEIRNKKGTDLYLGVDALGLNIYDKADRLSPKVGFPWSEIRNISFNDKKFVIKPIDKKAHDFVFYAPRLRINKRILALCMGNHELYMRRRKPDTIEVQQMKQQAREDRALKIAEQEKLTREMSAREEAEQRQRDAEKRMAQMQEDMERARLELAEAHNTIHSLEAQLKQLQLAKQALEQKEYELRELTAQLQSEKAMSDGERRHLRDQVDAREREVFSMREEVERQTTVTRQLQTQIHSQQHTQHYSNSHHVSNGHAHDETATDDEDNGATELTNDADQNVPQHELERVTAAEKNIQIKNKLDMLTRELDSVKDQNAVTDYDVLHMENKKAGRDKYKTLRQIRGGNTKRRIDQYENM	not soluble
MELRVGNRYRLGRKIGSGSFGDIYLGTDIAAGEEVAIKLECVKTKHPQLHIESKIYKMMQGGVGIPTIRWCGAEGDYNVMVMELLGPSLEDLFNFCSRKFSLKTVLLLADQMISRIEYIHSKNFIHRDVKPDNFLMGLGKKGNLVYIIDFGLAKKYRDARTHQHIPYRENKNLTGTARYASINTHLGIEQSRRDDLESLGYVLMYFNLGSLPWQGLKAATKRQKYERISEKKMSTPIEVLCKGYPSEFATYLNFCRSLRFDDKPDYSYLRQLFRNLFHRQGFSYDYVFDWNMLKFGASRAADDAERERRDREERLRHSRNPATRGLPSTASGRLRGTQEVAPPTPLTPTSHTANTSPRPVSGMERERKVSMRLHRGAPVNISSSDLTGRQDTSRMSTSQIPGRVASSGLQSVVHR	not soluble
MSLAQTLGYIYRKRMIDSIEEFSRQIETTYQINKFWDNFEQIREVQNTKIDKVKEKQQKLMERLSSLYDKVEGQKEMGSMNNSNISAAESEWFAEIKRSVIEFNSYVRKASTNHQELEFIKEQQAQIANQKPDISSENGKEWNDLQQLLREGHHHHHH	soluble
GPGSMNPHSRMPEDGGNAQPNETHRLMVGAAGQRPNVSGQFGKSTSPSLVAFAFLHLPLEDGCGAEEEEQNFLAFDVTTWATRIRNEGISGAVVDLWGAYNYYWHQADDRVQLALDSLASWMHALEMDRDPADRFTDLGRILLQVFWLQMMVTTANPGITISTLCARLHMAVHEAETCARATKPLA	soluble
MGSDKIHHHHHHMKILRHFLNATDPCMLQQHIRSIKQDEPANLAIAFGNIDAIVHLSQATEITQLATSWVVTSSCIAAFSDIAAEDNQNHLAILQFYDPQGSYGVASKQSSIDSIIEDSQQALTLALNAANRPGELPAFIWCSQSPGLEEGLLAGIRQLVGNNVPVFGGTAADNDVSGHWCMFDGQQTITTGFIIAVLFPSTPINYFFSSGYETTRHTAIVTSASGRKLHTLNHQPAASVYNQWRTMMALPTLANGPVLAQSTFNPLGRVILDNDEQMTLLSHPAFIYGDGTMELFSEVYQGEQLTFMHGNQTLLIQRAQTVTHFATQQLHDLYDSKPLAAIVIFCAGCMLAIKNETSQVRQGVENALGNVPFIGGFTFGEQGRFADGVNRHGNLMISAIIFGHPNE	not soluble
